Binding data for one sequence are collected here from paper PMC12463490.

The series deals with T1, rCCN2 (cellular communication network factor 2) (UniProt P29279).
T1 sequence: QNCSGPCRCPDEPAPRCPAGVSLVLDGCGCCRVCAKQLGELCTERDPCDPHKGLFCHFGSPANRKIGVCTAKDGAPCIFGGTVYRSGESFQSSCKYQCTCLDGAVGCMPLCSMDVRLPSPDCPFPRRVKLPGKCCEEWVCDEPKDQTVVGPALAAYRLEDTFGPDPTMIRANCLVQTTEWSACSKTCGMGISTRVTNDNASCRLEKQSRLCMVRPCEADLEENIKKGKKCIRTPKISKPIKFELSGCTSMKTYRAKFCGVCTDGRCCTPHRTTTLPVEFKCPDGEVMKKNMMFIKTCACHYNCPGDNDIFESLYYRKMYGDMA
Kind of series: EMSA. The settings on record: 20 mM HEPES (pH not stated), 45 mM KCl, 10 mM NaCl, 1 mM DTT, 0.1% NP-40, 10% glycerol, 4 C overnight; 4% polyacrylamide gel in TBE. Background: A gel shift assay detects complexes by their altered migration in electrophoresis.

For “GCACACATGCTTCCTGTGGTGACTGGGCGCTTCCTGTTTTCTCAGGCACCGGCCTTGCTGCTGCCGATGTGGAAACAGGGGCAGCTGCAGCCAGGGCGGCTCCAGGCTGGGCACTCTGACCCTGCCCAGAAGGGAGTGAGGGGGCCCACCACCCTTAGACTTACGATCTAGACAGTGGGT (double strand) [Spi1 proximal promoter probe (178 bp)]”, the binding result is recorded as “binds”.
